# Article PMC5499655
# Target: T1, His6-BldD (Streptomyces venezuelae) (UniProt A0ABZ1NMZ0)
# T1 sequence: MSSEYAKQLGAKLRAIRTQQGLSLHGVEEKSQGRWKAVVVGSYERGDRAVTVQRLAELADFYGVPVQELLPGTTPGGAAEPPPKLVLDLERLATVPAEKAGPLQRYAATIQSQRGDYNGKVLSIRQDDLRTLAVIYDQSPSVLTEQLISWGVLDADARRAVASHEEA
# Assay: EMSA
# Conditions: binding buffer and pH not stated
row,Sequence,binding
1,CTCCCAGAGGCAGAGCTTCCATCACGTGCAGTGCGGGACCGTTCACCCGTCGTGGCGACGTGAGGGGTCCTTTGTGCGTCTGAGGAGAATAACGCTTCGTACAGGCAGCGCTACACCCAGTTGCCTAAATCACCGGTTCCG (double strand) [bldN promoter],binds
2,GCCATGACCTGCTGTGACTTGAGTCACAGAGGCGAGTATTTGCTGACCCTGTGTACCGGGTGCGCAGCTCGCTGTGATTCAGTGGCGGTGACAGTGCAACACGAAGCCGATGAGAACCCTGGAGTTGCTGTCGAGGTCTCG (double strand) [cdgB promoter],binds
